Data as given in paper PMC10397247.

How the values were obtained:
P5-AA-1HAA-R = biological target: T1, P5-AA-1HAA-R; assay: two-hybrid library CCmax;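 also: natural log of median RNA to DNA barcode read ratio; higher means stronger binding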
T1 chain: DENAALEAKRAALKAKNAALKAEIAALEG

4H629-AA = biological target: T2, 4H629-AA; assay: two-hybrid library CCmax; details: mean of both orientations;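 also: natural log of median RNA to DNA barcode read ratio; higher means stronger binding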
T2 chain: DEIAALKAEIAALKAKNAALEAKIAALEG

4H891-AA = biological target: T3, 4H891-AA; assay: two-hybrid library CCmax; details: mean of both orientations;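 also: natural log of median RNA to DNA barcode read ratio; higher means stronger binding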
T3 chain: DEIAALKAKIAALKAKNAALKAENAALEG

4H697-AA = biological target: T4, 4H697-AA; assay: two-hybrid library CCmax;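 also: natural log of median RNA to DNA barcode read ratio; higher means stronger binding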
T4 chain: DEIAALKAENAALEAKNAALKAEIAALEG

4H3865-AA = biological target: T5, 4H3865-AA; assay: two-hybrid library CCmax;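 also: natural log of median RNA to DNA barcode read ratio; higher means stronger binding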
T5 chain: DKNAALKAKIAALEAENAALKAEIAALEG

4H745-AA = biological target: T6, 4H745-AA; assay: two-hybrid library CCmax; details: mean of both orientations;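 also: natural log of median RNA to DNA barcode read ratio; higher means stronger binding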
T6 chain: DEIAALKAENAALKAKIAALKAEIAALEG

4H797-AA = biological target: T7, 4H797-AA; assay: two-hybrid library CCmax; details: mean of both orientations
T7 chain: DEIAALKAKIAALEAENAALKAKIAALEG

4H930-AA = biological target: T8, 4H930-AA; assay: two-hybrid library CCmax; details: mean of both orientations
T8 chain: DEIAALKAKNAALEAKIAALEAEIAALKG

4H458-AA = biological target: T9, 4H458-AA; assay: two-hybrid library CCmax; details: mean of both orientations
T9 chain: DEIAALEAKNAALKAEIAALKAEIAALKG

4H710-AA = biological target: T10, 4H710-AA; assay: two-hybrid library CCmax; details: mean of both orientations
T10 chain: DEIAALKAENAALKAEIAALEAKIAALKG

4H570-AA = biological target: T11, 4H570-AA; assay: two-hybrid library CCmax; details: mean of both orientations
T11 chain: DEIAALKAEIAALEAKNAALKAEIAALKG

4H850-AA = biological target: T12, 4H850-AA; assay: two-hybrid library CCmax; details: mean of both orientations
T12 chain: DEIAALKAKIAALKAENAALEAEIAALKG

4H94-AA = biological target: T13, 4H94-AA; assay: two-hybrid library CCmax; details: mean of both orientations
T13 chain: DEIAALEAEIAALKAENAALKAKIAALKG

4H909-AA = biological target: T14, 4H909-AA; assay: two-hybrid library CCmax; details: mean of both orientations
T14 chain: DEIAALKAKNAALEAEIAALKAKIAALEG

4H485-AA = biological target: T15, 4H485-AA; assay: two-hybrid library CCmax; details: mean of both orientations
T15 chain: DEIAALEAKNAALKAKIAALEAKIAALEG

4H982-AA = biological target: T16, 4H982-AA; assay: two-hybrid library CCmax; details: mean of both orientations
T16 chain: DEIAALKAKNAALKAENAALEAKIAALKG

4H536-AA = biological target: T17, 4H536-AA; assay: two-hybrid library CCmax; details: mean of both orientations
T17 chain: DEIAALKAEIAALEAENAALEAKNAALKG

4H3632-bH = biological target: T18, 4H3632-bH; assay: two-hybrid library CCNG1
T18 chain: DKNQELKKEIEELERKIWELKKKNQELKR

4H145-bH = biological target: T19, 4H145-bH; assay: two-hybrid library CCNG1; details: mean of both orientations
T19 chain: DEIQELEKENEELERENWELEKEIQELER

4H3070-bH = biological target: T20, 4H3070-bH; assay: two-hybrid library CCNG1; details: mean of both orientations
T20 chain: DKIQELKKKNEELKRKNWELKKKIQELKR

4H2691-bH = biological target: T21, 4H2691-bH; assay: two-hybrid library CCNG1
T21 chain: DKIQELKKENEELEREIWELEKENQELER

4H496-bH = biological target: T22, 4H496-bH; assay: two-hybrid library CCNG1
T22 chain: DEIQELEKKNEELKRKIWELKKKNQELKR

4H2619-bH = biological target: T23, 4H2619-bH; assay: two-hybrid library CCNG1
T23 chain: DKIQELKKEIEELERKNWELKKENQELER

4H342-bH = biological target: T24, 4H342-bH; assay: two-hybrid library CCNG1
T24 chain: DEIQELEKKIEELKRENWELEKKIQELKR

Binder: DKNAALKAKIAALEAENAALKAEIAALEG [4H3865-AA]
- interaction score (P5-AA-1HAA-R): -0.395
- interaction score (4H629-AA): -1.62
- interaction score (4H891-AA): -1.81
- interaction score (4H697-AA): -1.81
- interaction score (4H3865-AA): 0.444
- interaction score (4H745-AA): -0.83
- interaction score (4H797-AA): 1.12
- interaction score (4H930-AA): -1.43
- interaction score (4H458-AA): -1.15
- interaction score (4H710-AA): -1.84
- interaction score (4H570-AA): 0.484
- interaction score (4H850-AA): 1.18
- interaction score (4H94-AA): 1.56
- interaction score (4H909-AA): -1.04
- interaction score (4H485-AA): -1.27
- interaction score (4H982-AA): -0.79
- interaction score (4H536-AA): -0.909

Binder: DEIQELEKENEELERENWELEKEIQELER [4H145-bH]
- interaction score (4H3632-bH): -1.44
- interaction score (4H145-bH): -0.793
- interaction score (4H3070-bH): 1.19
- interaction score (4H2691-bH): -0.291
- interaction score (4H496-bH): -0.316
- interaction score (4H2619-bH): -0.128
- interaction score (4H342-bH): -0.409
